Test: soluble fraction after stress (log2 fold change); higher = more stays soluble; pooled small domains, quantitative proteomics
Conditions: stress: 75 degC
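Note: 20 min heating vs room temperature control held 20 min.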

Sequence | soluble fraction (log2)
HMDDTPLNNVIKKIAALPENITLADKSAVLSAWEAYQALSVNLKAQVSNSELLIKAYETILQLEGEDQIK | 0.437
HMDDYRIEDMMTVVEEQVIRQKETNLSWFFKRAGSLNEIITIFLAALELIKVHRVYVKQEHNFDDIILRKE | 0.305
HMDEAAGVLTQLRAFIAASNLSPGLRLPPERELAEQLGVTRAELRKALAVLEAEGLLWRQVGKGTFYGARP | -1.35
HMDEAEELYQAVQALKPKYREVILLHYYQGLRVGEIAAILRAPQSTVSIRLRRARQMLNRMLG | -0.701
HMDEALLRATLLDVLVKHHPKIGDKLDVVFALAKAWVSSGSDDDFEVLEKYMERLKPDEALMLASGFSNML | -0.886
HMDEDTWKLYKRAYKKYYARYMKGNMSEAAFKAWGEQAAADRDAAIEQLRATTDAALSASIIQQLKEKLNR | -0.995
HMDEEDVLNELIRRLALTADDRLLLSLSYEDGLSSRKIATLLETSAATVQRRLAGLHHQLEQALRVMGLA | -0.323
HMDEEGDALDREYEDQIRLGDEAFDAEDWTSAQRAYTAALELRPDERYPKNRLRRLASLQEDV | 0.245
HMDEETVALQKAIHSLPPKQQAVFNMRYYDEMSFREIADANETTESSAKANYHFAKAKIIEQMKR | 0.113
HMDEILHHPSYRAIYEYMLDHKHVKTKDIAALLNVKEPRARQLLKEMIDKHFIIALGSNRNREYELL | -0.94
HMDEKSGWLHLAPHEGALRAALYAEHAVQEERTAPDGSQWLRLVLREKHYHQIQSKYNRRLTLHTQPDPS | -2.58
HMDENDPYEILEIDRLASDDQVKAKYRALIRENHPDVLMAKGVPQEFIDLANRKMAVINAAYDRIEKEREF | 0.122
HMDEPGAGYKWREDVLLRVMASHGIEESLRDDFVRHAVGFDNDDNMYLKKVEIENAAAAWVAN | -0.359
HMDETELLLQKAIATLPDKQRVVFNLKYFDEMKYEEMSELLETSVGALKASYHLAVKKIEQFFHDA | -0.555
HMDETYRRQLEDLAREHGAEYLHGILREVDPASAEAIHANNIKRVIRALEFYHLSGKKISEHNETERQ | -0.12
HMDEVHYLADKERGTTWEEILIHADRDIKFLSLSATINNKNEFLEWLVSLRGTTSLIHSSTRPIPLEI | 0.231
HMDEVLDQFVRGQIYGYIRANPGDIYSSIRDNLGLKNGVTTYHLDVLAREEYVYSEIDGTNRRFYPSGWEE | -2.77
HMDEVVVVERGGVQITMSEIDAKIMELPVDVRPSYLDSPERLQNFVSNLLLEKQAAQLKSQY | -0.142
HMDEWDPAILYVGLDYEDAAQIATRLATSGVPYRLSPDGTMITVPDDQVNNMRLTLAGEGFPH | -0.0325

Sequence | soluble fraction (log2)
HMDEYFNPETVVHYLRELFDTYRENGGNPFEWFHSTFESVNLNPQNYRKDLITTIEKALIEWIEIFEKQ | -0.697
HMDFDPDVPSREDILQAFRDSKPPLTVNALISEFGLSRDASIVGLERRMGAMQRDGQLEQTPSGWQLSV | -0.164
HMDFFVLVGAYKTPDEAETIRAKIAFSGLDSSVSHGNDGRYRVRIGPFHSEGDARKAQSTLRANDIPGQII | -1.01
HMDFGMPEELQKKLDKMPALKAAFEALTPGRQRGYIFYFSQPKQSKTRELRIEKSIEQIMNGKGLND | -0.414
HMDFIEYIISEESKGLRADQAISMENDKFSRSLIQKWIKKGRVLVNGRKIKPKDIVNLNDKITINPEESIN | -0.36
HMDFITPYEIEQGQYEGAELYEDGKFEEAFSLSSIAAQRGMKTAQYLLGIMFLKGEYVDQSLAIGMAW | -0.52
HMDFPYISGIEIAAIKNREFIRIETDKAQEIAIALDKSGIPFSARFSDAEMVLTYDGSYKEQVEDIIAKA | -0.705
HMDFSERLARAMSLAGYTQGRLAKEVGMAQSSVNKLLNGANGSRKTVEIASVLGVRPEWLSTGAGEML | -0.546
HMDFSSRLKDERKRLKLSQAQLGEAGGVSKDAQLNYENGSRSPSASYLELIAREGVDVQFLLTGKRS | 0.155
HMDFSYTVGDIDEPIDSRGNSVIMLRKLAWGSNAEKLEIRRWIIDIDSERANKGVTFLTEEGPHNLVRV | 0.272
HMDFTISDADFHRLVQFIQQNYGVALSKKRQLISSRLSHSLRELGYKDFRTFLEHLFSTRDPADLELVLNK | -1.59
HMDFYVILGVDRAASLSDVKRAYRRLARKHHPDINPGDPESDAFFMRVTEAYETLVDPDRRQEYDEHG | -0.75
HMDGEFINLKNRAGTEIEARILNYQNGQVKLERKDGVTFVVSISMFDAKSVIAINHKIAEIIDT | -2.28
HMDGIDALEPLMRRVFEALPQRRSMTIERAAVAAGLDEESVKIALVRLQLEGYVANDERGWHRSKSPH | -2.48
HMDGIGLRVRMIREGVGLTQKQLAEHLGMQRTALVQVEAGSRKLSASELIGVARFFNITVEQFLDPEK | -3.5
HMDGIPVPDVKGTVEAEATATLKNSGFEVTKTQDFSDTVEAGKVISQNPAGGSSAASGSSVTLVISQGPN | -0.0786
HMDGISANAVKALIESLIAGEDKRKPLSDQAMSDRLALQGIVLARRTVAKYREELNFPPAHQRKQK | -1.41
HMDGLPYPEAAEEPIAQVARNLGMDATRVSIALQEAKLIFRNLDETLAEIAANNGTTPQVVYDAIRHLEPP | -0.248
HMDGLTEQQADDILAFISIKGTNAEVLAALENYAGRNETFDTGLSELKVVASNLAAFGMPEENFVVDL | 0.283

Reference: the domain aggregation screens of Martell et al. (2025)
